Laboratory results published in paper PMC6660772.

B1: KAP1 RBCC (residues 50-413), wild type [human] / itself (parent)
chain: SPAGGGAEALELLEHCGVCRERLRPEREPRLLPCLHSACSACLGPAAPAAANSSGDGGAAGDGTVVDCPVCKQQCFSKDIVENYFMRDSGSKAATDAQDANQCCTSCEDNAPATSYCVECSEPLCETCVEAHQRVKYTKDHTVRSTGPAKSRDGERTVYCNVHKHEPLVLFCESCDTLTCRDCQLNAHKDHQYQFLEDAVRNQRKLLASLVKRLGDKHATLQKSTKEVRSSIRQVSDVQKRVQVDVKMAILQIMKELNKRGRVLVNDAQKVTEGQQERLERQHWTMTKIQKHQEHILRFASWALESDNNTALLLSKKLIYFQLHRALKMIVDPVEPHGEMKFQWDLNAWTKSAEAFGKIVAERP

Variants of: B1
Assay: SEC-MALS
Settings: with itself; mutant 179 µM; WT 159 µM; read off a plot

screen value [kDa] | Variant
95 | chain 1 A111D T114A E126R
